Data from patent US9090549B2, “1,4-naphthoquinones derivatives and therapeutic use thereof” (CENTRE NATIONAL DE LA RECHERCHE SCIENTIFIQUE (C.N.R.S.), priority 2008, dated 2015).

Substrate: CC1=C(C(=O)c2ccc(Br)cc2)C(=O)C2C=CC=CC2C1=O
Assay: 1,4-Naphthoquinone reductase activity of P. falciparum glutathione reductase
Assay type: biochemical, Plasmodium falciparum
Conditions: other: pH 6.9, 100 μM NADPH, 1% DMSO
Procedure: The reduction assay mixture consisted of 100 mM potassium phosphate buffer pH 6.9, 200 mM KCl, 1 mM EDTA and 100 μM NADPH in a total volume of 1 mL. 1,4-naphthoquinone reductase activity was determined by recording the initial velocities in the presence of increasing naphthoquinone concentrations (0-300 μM). The 1,4-naphthoquinone was first dissolved in DMSO, and a final 1% DMSO concentration was kept constant in the 1,4-naphthoquinone reductase assay. For the determination of KM and Vmax values, the steady-state rates were fitted by using nonlinear regression analysis software (Kaleidagraph) to the Michaelis-Menten equation. From these values, the turnover number kcat and the catalytic efficiency kcat/KM were calculated.

B1: P. falciparum glutathione reductase (PfGR) (Plasmodium falciparum K1) (protein)
chain: VYDLIVIGGGSGGMAAARRAARHNAKVALVEKSRLGGTCVNVGCVPKKIMFNAASVHDILENSRHYGFDTKFSFNLPLLVERRDKYIQRLNNIYRQNLSKDKVDLYEGTASFLSENRILIKGTKDNNNKDNGPLNEEILEGRNILIAVGNKPVFPPVKGIENTISSDEFFNIKESKKIGIVGSGYIAVELINVIKRLGIDSYIFARGNRILRKFDESVINVLENDMKKNNINIVTFADVVEIKKVSDKNLSIHLSDGRIYEHFDHVIYCVGRSPDTENLKLEKLNVETNNNYIVVDENQRTSVNNIYAVGDCCMVKKSKEIEDLNLLKLYNEERYLNKKENVTEDIFYNVQLTPVAINAGRLLADRLFLKKTRKTNYKLIPTVIFSHPPIGTIGLSEEAAIQIYGKENVKIYESKFTNLFFSVYDIEPELKEKTYLKLVCVGKDELIKGLHIIGLNADEIVQGFAVALKMNATKKDFDETIPIHPTAAEEFLTLQPWMK
Km: 6.1 µM
